Measured values taken from the DeepSol protein solubility set.

Assay: soluble on expression in E. coli; label from the status in PepcDB or PDB records

| Sequence | soluble on expression in E. coli |
| --- | --- |
| MSTLLDRVPCTIVTGFLGAGKTTLLRGLLEKLDGKRLAIIVNEFGDIGIDGEILKGCGIESCPEENIVELANGCICCTVADDFQPAIEQILSRQPKVEHILIETSGLALPKPLVQAFQWPAIKSRVTVDAVVAVVDGAALAEGQVAHDMEALAAQRANDEALDHDDPVEEVFEDQVACADLIVLTKADLLDDAGLEKAKAHILEHLPKAAKIVVASNGAIDPTVLIGLGLAVEEDIENRRTHHDGELDHEHDDFDSFVIDLPAVTDPEALAARIAQTAAAENVLRIKGFIEVATKPMRLQVQAVGSRVNHYYDRPWAAGEERRSRLVVIGEKGINREKIEQMLAA | not soluble |
| MSLVERVILIVLDSVGAGEMPDADKYGDKGSDTIGNISKAVGGLKLPDMVKMGLGNISGIKGVDKVQYPIGAFGKLKEMSKGKDTVTGHWEMSGVILEEPLNTYPNGFPKDIIDEFEKKIGRKVIGNKVASGTEIIKELGDEHIKTGCPIVYTSADSVFQVAAHEEIIPLDELYKICKVAREMLVDDRTVGRVIARPFVGKNSNYTRTSNRRDFALDPFNKTMLEYIKENKSNVMCVGKIEDIFNKKGVTEAVHIKNNMDGVDKTLEYMKTDKKGLIFTNLVDFDMLYGHRNDPKGYAKALEEFDGRINEIKTNMKDYDVLMITADHGCDPTTESTDHSREYIPFIAYGKDIKGGADIKIRDSFSDIGKTILDLLQVENNLVGKSFKDIIMKEGHHHHHH | not soluble |
| MSLSFTVAVKEEILGQHHLSRHELSAIIKMSGSIGLSTSGLTLSVVTENAKLARHLYESFLHFYEIKSEIRHHQRSNLRKNRVYTVFTDEKVQDLLSDLHLADSFFGLETGIDEAILSDEEAGRAYLCGAFLANGSIRDPESGKYQLEISSVYLDHAQGIASLLQQFLLDAKVLERKKGAVTYLQRAEDIMDFLIVIGAMQARDDFERVKILRETRNDLNRANNAETANIARTVSASMKTINNISKIKDIMGLENLPVDLQEVAQLRIQHPDYSIQQLADSLSTPLTKSGVNHRLRKINKIADELEGHHHHHH | soluble |
| GPGSMEEDLAYKIIVIGSVSVGKSNITSRFCDGAFYPDLVPTLGMDFKYSSCNTLEKRPRCVRLQVWDTSGQDDFVTLTTAFYRNCQGALLCFDLTNRQSFEDLDQWYERLERYSPVVPPLILVGCKLDLVESHLDEQGEGIVLGSHRQIAKSEADAWARYHSCLCYLETSAKENRNVSQAFQQLATCIASVANPGAKHAGRILGPGGRLLVEEEKQQKRQCCAN | not soluble |
| MGSDKIHHHHHHMTDPFFLSDSGLLESYRAPKWLPGGNAQTIFPYFINLSPIISYRRERWEMDDGDFIDIDWLDGESDKPLVIMLHGLEGSSQSHYALSLMNLLQMLRWRGAVVHFRGCSGYSNRLPRAYHAGDSMEIDRMLRHIAHRNDSHEWNTPCYVVGVSLGGNALLKWLGEQGAQAARQIAGVVAVSVPLDLAAAGKVLDSGFNRVYTHHFLTTLKRKALEKNRQFPGLLNARAVAACRSLYEFDNLVTAPLHGFRDTDDYWRQSSSKPWLGSVQVPTLLINARNDPFLPESVLPQKSEVSSFVSLEFPQQGGHVGFIQGTFPGKLDWLPQRIIEFFSSLCGLDAIPG | not soluble |
| MPEFRVWAPKPALVRLDVNGAVHAMTRSADGWWHTTVAAPADARYGYLLDDDPTVLPDPRSARQPDGVHARSQRWEPPGQFGAARTDTGWPGRSVEGAVIYELHIGTFTTAGTFDAAIEKLDYLVDLGIDFVELMPVNSFAGTRGWGYDGVLWYSVHEPYGGPDGLVRFIDACHARRLGVLIDAVFNHLGPSGNYLPRFGPYLSSASNPWGDGINIAGADSDEVRHYIIDCALRWMRDFHADGLRLDAVHALVDTTAVHVLEELANATRWLSGQLGRPLSLIAETDRNDPRLITRPSHGGYGITAQWNDDIHHAIHTAVSGERQGYYADFGSLATLAYTLRNGYFHAGTYSSFRRRRHGRALDTSAIPATRLLAYTCTHDQVGNRALGDRPSQYLTGGQLAIKAALTLGSPYTAMLFMGEEWGASSPFQFFCSHPEPELAHSTVAGRKEEFAEHGWAADDIPDPQDPQTFQRCKLNWAEAGSGEHARLHRFYRDLIALRHNEADLADPWLDHLMVDYDEQQRWVVMRRGQLMIACNLGAEPTCVPVSGELVLAWESPIIGDNSTELAAYSLAILRAAEPA | not soluble |
| SGVDRVLVKSEAWADNRLPLTEAELALIATPPEDSDMASLQQQRQEQNYFVRLGSLSERLRNHAYEHSLGKLQNARQKAQETLQQLTSVLGLMESVKQGVDQRLGEGQEKLHQMWLSWNQKTPQDAEKDPAKPEQVEARALSMFRDITQQLQSMCVALGASIQGLPSHVREQAQQARSQVNDLQATFSGIHSFQDLSAGVLAQTRERIARAREALDNTVEYVAQNTPAMWLVGPFAPGITEKTPEGK | soluble |
| MAHHHHHHMKVSFTLFFIIYIILNCDVLKCEVESSDSTSFLNLISGQSSSNSDDTVSSSDSRGVVASVSGTVDSDVSRTDSTGNVNSKNSELSETRQNSVEQNNNSNSSDNSIKIKSAFLKENVGVKITGPCDEGFGLVMVPHIIINVDTRNTDIQLGKKSSEINYGIKLRKKGKDEYEEKVGIDLLKNVCETGKNFKFVAYIKGDELIIKWKVIEEGNIPIDIKKFKIKRMSPPITSIQVFSSMSDEKSFVLENKNYVVTNNMPEKCEALATNCFLSGNIDIEKCYQCSLLVENDSKSDVCYNFISRENKEKLNEERFKVKGSTEYEESVESELKGAIDLLISSFYKSDGENGENVLISFEDLNSTLEDDIINFCSLLKLVDLSG | not soluble |
| MEPEFLYDLLQLPKGVEPPAEEELSKGGKKKYLPPTSRKDPKFEELQKVLMEWINATLLPEHIVVRSLEEDMFDGLILHHLFQRLAALKLEAEDIALTATSQKHKLTVVLEAVNRSLQLEEWQAKWSVESIFNKDLLSTLHLLVALAKRFQPDLSLPTNVQVEVITIESTKSGLKSEKLVEQLTEYSTDKDEPPKDVFDELFKLAPEKVNAVKEAIVNFVNQKLDRLGLSVQNLDTQFADGVILLLLIGQLEGFFLHLKEFYLTPNSPAEMLHNVTLALELLKDEGLLSCPVSPEDIVNKDAKSTLRVLYGLFCKHTQKAHRDRTPHGAPN | soluble |
| MTTSALPRQAFGEMADTVILLEKATTTPICEGMNRLLASFQALYLQYQKHHFVVEGAEFYPLHQFFQDCYEQVQDHVHALGERLNGLGGVPVAGFQQLAALCCFTPEPEGAFNCRQMLSNDLQAEQAIIGVLRQQATQAESLGDRATAYLYDQILLKTEERAYHIGHFLANDSLKVLKVKLADGREHHHHHH | soluble |
| ERSPFPELLPFGEVSVRDSMLYLFVRPDMAGKEVFIPVNGEFLEEVSNLTNASPLNMDIRKTGVRIRMPASMPESFLVLALAFDRNDFVLAGRPQGYPLHMANSSRIYGHSCWDYYTGFKSITGMKWQAVSAPRAIIYTDMEAGKTLRLSVGREEREITLEGGKSEEVSISHDGLSWGKPYVRQVGGVFGMIPDNILRGDSIPLPLTKGWEEMPVGQVEKKPWGEISSCLLVQDIVSDREQTVACHLTFGNGIYVTLNGKQITAELIRETGLAHELTVCLPLQKGKNRLAVKFMNRFGEELIRGVSWPKSYTRYLLPIEGFSLEKVGKKGIPIELRPASVRYQGASASIPNIALL | not soluble |
| MGSDKIHHHHHHMLELTPNLNMNSKKALYVQLYEYIKKEIKDGTIVPFTKLPAKRKLAIHLQVSKNTVEAAYEQLLAEGYIESISRKGYFVCKIEQMVHVEDSEERIEEVLFQEKSYKFDFTQTGIDTNAFPFNMYRKIVNEVWQPYNNELLFLGHPQGEASLREEITNYLYESRGVRCSASQIVLGAGTQILVKLLFQLLKGSNYAVENPGYHRKMVVFEQGEEKVQMLSLDRDGICMADLENSDANVVFVTPSHQFPYGMIMPITRRTQLLQWAKKAKDRYIIEDDYDSEFRYSGRPIPALQGLDTEGKVIYMGTLSKALLPSLRMSYIVLPKNLIIKYQKEYLFYTQSVSRMDQEVIRKFLNEGYWEKHIHKMRVVYRKKRDRLVFEIEKYFSNRVEVIGEDSGLHILLQVHNGMREEELIQEAAKYSIKVYPVSTYYKDGTAPENVVLLGFAILSEEEIAKAIQLLNTAWFRKKVKKHPHT | not soluble |
| GMSSMQHIVELTSDLIRFPSMHSRPEQISRCAGFIMDWCAQNGIHAERMDHDGIPSVMVLPEKGRAGLLLMAHIDVVDAEDDLFVPRVENDRLYGRGANDDKYAVALGLVMFRDRLNALKAAGRSQKDMALGLLITGDEEIGGMNGAAKALPLIRADYVVALDGGNPQQVITKEKGIIDIKLTCTGKAAHGARPWMGVNAVDLLMEDYTRLKTLFAEENEDHWHRTVNLGRIRAGESTNKVPDVAEGWFNIRVTEHDDPGALIDKIRKTVSGTVSIVRTVPVFLAADSPYTERLLALSGATAGKAHGASDARYLGENGLTGVVWGAEGFNTLHSRDECLHIPSLQSIYDPLMQLAREMEEHAAV | soluble |
| MSLNTENIRIIALGGVGEIGKNLYVIEIDSDIFVVDAGLMHPENEMLGIDVVIPDISYLIERSDRVKAIFLTHGHEENIGGVFYCLNKLSVPVYGTKLTLALLKETLKQYGVNKKPDLREIHSKSVITFESTKVSFFKTNHSIPDSVGVSFKTSLGSIVCTGDFKFDQTPVLNQTSDIGEIAKIGNSGVLCLLSDSANAEKPGYTPSEALVGGEISDVMYNAENRVIIAVFASNFNRIQQVIDAALQNGRKLAVSGKNISAILQLAMKLGYVTADEDMFIPVQEVKKYPKREVAILTGDNHGEPLAALTRIAKQGHKQLDIEEGDTVLIASSPIPGQELVYSKAVDLLTRAGAQVVFAQKRVHVSGHGCQEELKLMLNLLKPKYLIPVNGEYRMQKAHSKLAEEIGMKRSDIFLIEKGDVVEFRGQNVKIGDKVHSGNILIDGLGVGDIGNIVLRDRRLLSQDGILIVVITLDKKKKHLVSGPEIITRGFVYVRESEQLIVEATELVRELVNESTENAVVEWSALKQTMREALNQFLYEKTKRKPMIIPIIMEEGHHHHHH | soluble |
| GSMVENSELRKAGLKVTLPRVKILQMLDSAEQRHMSAEDVYKALMEAGEDVGLATVYRVLTQFEAAGLVVRHNFDGGHAVFELADSGHHDHMVCVDTGEVIEFMDAEIEKRQKEIVRERGFELVDHNLVLYVRKKK | soluble |
| MGSDKIHHHHHHMPEFMKPIHSVILIQNLQARIETCAEMAVNVFQNLNTASLLCPSNTGGWSIVQCLDHLNSYGDYYLPHIQKAFDTHMPGKPAEDVKSSWLGNYFTQLMLPDSGKKYKAFKKHIPKPRLDSAAVVATFIEQQEILLTYLEKAKKYDMNTIRISISIAPFIKLKLGDVFQFLVAHTERHVQQAQRNVPIYE | not soluble |
| MAKKRSKLEIIQAILEACKSGSPKTRIMYGANLSYALTGRYIKMLMDLEIIRQEGKQYMLTKKGEELLEDIRKFNEMRKNMDQLKEKINSVLSIRQ | soluble |
| MSLTDIKMIALGGVREYGKNFYLVEINDSMFILDAGLKYPENEQLGVDLVIPNLDYVIENKGKVQGIFLSHGHADAIGALPYLLAEVSAPVFGSELTIELAKLFVKSNNSTKKFNNFHVVDSDTEIEFKDGLVSFFRTTHSIPESMGIVIGTDKGNIVYTGDFKFDQAAREGYQTDLLRLAEIGKEGVLALLSDSVNATSNDQIASESEVGEEMDSVISDADGRVIVAAVASNLVRIQQVFDSATAHGRRVVLTGTDAENIVRTALRLEKLMITDERLLIKPKDMSKFEDHELIILEAGRMGEPINSLQKMAAGRHRYVQIKEGDLVYIVTTPSTAKEAMVARVENLIYKAGGSVKLITQNLRVSGHANGRDLQLLMNLLKPQYLFPVQGEYRDLAAHAKLAEEVGIFPENIHILKRGDIMVLNDEGFLHEGGVPASDVMIDGNAIGDVGNIVLRDRKVLSEDGIFIVAITVSKKEKRIISKAKVNTRGFVYVKKSHDILRESAELVNTTVGNYLKKDTFDWGELKGNVRDDLSKFLFEQTKRRPAILPVVMEVREGHHHHHH | soluble |
